Measurements taken from the supplement of paper PMC11865577.

What follows are sequences tested on TO-3-N3 (biotin conjugate) (assay: pull-down binding Z-score (relative to library population); higher = stronger binding). Details: RNA library: Library-2.
In short: (§1)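 Streptavidin beads bearing 100 pmol of a biotin-conjugated small molecule were incubated for 60 min at 25 °C with 1 μg of heat-folded, Cy5- or Cy3-end-labelled RNA library in phosphate/NaCl/KCl buffer. Hot SDS eluted the RNA that stayed bound after three washes, and this RNA was hybridised for 20 h at 55.5 °C to a DNA barcode microarray. Binding was expressed as a Z-score against the library mean and standard deviation, after subtraction of a beads-only signal and trimmed averaging of barcoded replicate probes.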

Row | Sequence | pull-down binding Z-score
1 | UGUGCCCCGUACCGGACAGG [hsa-mir-7160] | -0.0418
2 | UGUGCCUGCCUUCGAAGUGCACGGCAGG [hsa-mir-4297] | 0.105
3 | UGUGCCUUGCCUUUCCUUUGGCACA [hsa-mir-4438] | -0.0269
4 | UGUGGCAGUGGCAGAGGUCGCUACA [hsa-mir-6856] | 0.436
5 | UGUGGCCUGGGGGUUGAGGACCCCUGCUCUA [hsa-mir-645] | 0.874
6 | UGUGGCCUUUUUGCCUUUUCUAAAGGCCACAU [hsa-mir-1250] | -0.234
7 | UGUGGUCACCCACUCU [hsa-mir-4316] | -0.237
8 | UGUGGUGGGUGGUGGCCUGCGGUGAGCAGGGCCCUCA [hsa-mir-1228] | 1.6
9 | UGUGGUUGGGGCCAUGGCGGGUGGGCAGCCCAGCCUCUGAGCCUUCCU [hsa-mir-1238] | 2.04
10 | UGUGUGCUGAGAAAAUUCACACA [hsa-mir-5580] | 0.00215
11 | UGUGUGUACUCACAGCCCCUCACACA [hsa-mir-942] | -0.301
12 | UGUGUGUCGCUCCGGGUCCACG [hsa-mir-574] | 0.0307
13 | UGUGUUCAGUGGAACCAAGGUAAACACA [hsa-mir-624] | 1.29
14 | UGUUAAGGCAUGUUCAGGAACA [hsa-mir-1265] | -0.0763
15 | UGUUAGUGUUCAAGUCUACA [hsa-mir-4802] | -0.747
16 | UGUUCACUUUCUAUAUGAUGAAUA [hsa-mir-656] | -1.09
17 | UGUUCAGUGGGAUUUGGAGA [hsa-mir-8061] | 0.542
18 | UGUUCAUGUCUCUCUGUGCACAGGGGACGAGAGUCA [hsa-mir-4420] | -0.612
19 | UGUUCAUUCACAUGAUCAUAAGUGGACA [hsa-mir-4643] | 0.535
20 | UGUUCGCUUUAUUUAUGAUGAAUCA [hsa-mir-539] | -0.769
21 | UGUUCGUUUUGCUCAUGUCGAAUC [hsa-mir-487b] | -0.794
22 | UGUUGACUGAAUAAUAAACA [hsa-mir-3139] | -0.946
23 | UGUUGAGCGCAGUAAGACAACA [hsa-mir-3529] | -0.51
24 | UGUUGGCAGCCCAAGAUGACA [hsa-mir-4686] | 0.375
25 | UGUUGGGGGGACA [hsa-mir-4262] | 2.24
26 | UGUUGGUUGAAGAUGCCUUUCAACA [hsa-mir-552] | -0.807
27 | UGUUUAACUCCUCUCCACGUGAACA [hsa-mir-499a] | 0.828
28 | UGUUUAUGUUAUUUAUGGUUAAACA [hsa-mir-376c] | -0.655

Row | Sequence | pull-down binding Z-score
29 | UGUUUCUUUAAUGAGGACGAAACA [hsa-mir-329-1] | 0.65
30 | UGUUUCUUUAUUGAGGACGAAACA [hsa-mir-329-2] | -0.144
31 | UGUUUGUGUCUAAACUAUCAAACG [hsa-mir-122] | -0.183
32 | UGUUUUUGCCAUUAAAAAUAAUGGCAUUAAAAGUAAUGGCAAAAACG [hsa-mir-548al] | -0.484
33 | UUAAAUGUGUCAUUUAAAAAUUCAG [hsa-mir-1972-1_1972-2] | -0.0749
34 | UUAACAUGUUGAGCAUUACUCAUGUUAG [hsa-mir-3684] | -0.527
35 | UUAACCUAAAAUGAGAAGGCUAA [hsa-mir-633] | -0.0885
36 | UUAAUGAGGCCAUAGA [hsa-mir-6863] | -0.374
37 | UUACCCAACGUCUCUGAGUCUCGGUUUUGAGAGGGUGAGUAA [hsa-mir-7973-1] | 0.0875
38 | UUACUCACCCUCUCAAAACCGAGACUCAGAGACGUUGGGUAA [hsa-mir-7973-2] | -0.25
39 | UUACUGCAGGGAUCUUAGCAGUAC [hsa-mir-583] | 0.295
40 | UUAGCCCAGCAAUGGGAGAGUGCUAA [hsa-mir-4636] | 0.252
41 | UUAUACCUGAUGCUCACGUAUAA [hsa-mir-208a] | 0.398
42 | UUAUCUGUCACCAGUCAGAUAACUGUCACCAGUCAGUUAA [hsa-mir-4764] | -0.842
43 | UUAUGUUUCUGAUCCGAAUAUAA [hsa-mir-208b] | -0.229
44 | UUAUUCAGAGAGGCUAGAUCCUCUGUGUUGAGAAGGAUCA [hsa-mir-433] | -0.385
45 | UUAUUUGAGAUGAGUUACAUCUUGGAGG [hsa-mir-1204] | 0.0122
46 | UUCACAGACUCUCCAAAAGUCUGAA [hsa-mir-4670] | -0.362
47 | UUCAGAGUCAAUAUAAUUUUCUAG [hsa-mir-29a] | 0.749
48 | UUCAGAUUUUGGAACAUUUCGGAUUUUGGA [hsa-mir-1290] | -0.172
49 | UUCAGCCUAAAGCAAUGAGAAGCCUCUGAAAGGCUGA [hsa-mir-1827] | -0.198
50 | UUCAUAGGGAAGCCUUUCCAUGAA [hsa-mir-4738] | -0.542
51 | UUCAUGUUCACUGAAAGGUAGAUUUUAAAAACAUGAA [hsa-mir-4790] | -0.15
52 | UUCAUUCAUUCGUUUGCACAUUCGGUGAA [hsa-mir-493] | -0.556
53 | UUCAUUUUAUUUAUGAUGAG [hsa-mir-496] | -0.959
54 | UUCCGGUGAUUAUCACAGCCAUGCCUUUACCUCCAGAA [hsa-mir-4493] | -0.84
55 | UUCCUUGUCUGUAGCCAUGUCUAUGGGCUCUUGAG [hsa-mir-571] | 0.494

What follows are sequences tested on TO-N3 (biotin conjugate) in the same assay as above. Details: RNA library: Library-2.
In short: as §1

Row | Sequence | pull-down binding Z-score
56 | UGUAAAUAACUACAAUUCUCUUAACUCCGUAGCAGUUGC [hsa-mir-7844] | -0.11
57 | UGUAAGUUUGCGAUGAGACACUACA [hsa-mir-144] | 0.405
58 | UGUACAGGUGAGCGGAUGUUCUGCACA [hsa-mir-3120] | 1.67
59 | UGUACGCUUUAUUUGUGACGUAGG [hsa-mir-1197] | -0.195
60 | UGUAUAGUAUUAUUCAAUACC [hsa-mir-1912] | -0.445
61 | UGUAUAUAGCAUAUGUGUAUACAUACACACACACACACACACACACACA [hsa-mir-8485] | 0.167
62 | UGUAUGUGUAAAUACAUAUCCACACA [hsa-mir-4789] | -0.285
63 | UGUAUUUUUCAGCAAGGCAAGGGCUUUGAUGUCUUGUA [hsa-mir-8065] | -0.402
64 | UGUCAUUACUUUCAAUGGCA [hsa-mir-548h-2] | -0.978
65 | UGUCAUUACUUUUAACUGUA [hsa-mir-548h-5] | 1.07
66 | UGUCAUUACUUUUAAUGGUA [hsa-mir-548h-1] | -0.56
67 | UGUCAUUGAAAGUAAUAGCA [hsa-mir-548h-3] | -0.141
68 | UGUCGUAGAAAGUAAUGGCA [hsa-mir-548l] | -0.189
69 | UGUCUUGUAGCCAGGAUAUUGUUUUAAAGAA [hsa-mir-4668] | -0.338
70 | UGUCUUGUGUCUGUAAGUAU [hsa-mir-1275] | -0.413
71 | UGUCUUUUUUUUUUUCUGAGACA [hsa-mir-1273c] | -1.21
72 | UGUGACCUGGAGCAGCUCAGGAGGGCUUCCUGGGUGAGGUGGCAGGUUACA [hsa-mir-4311] | 1.08
73 | UGUGAGAGCUACUAAGUCUUAUA [hsa-mir-8076] | -0.162

Row | Sequence | pull-down binding Z-score
74 | UGUGCCCCGUACCGGACAGG [hsa-mir-7160] | 0.611
75 | UGUGCCUGCCUUCGAAGUGCACGGCAGG [hsa-mir-4297] | 0.519
76 | UGUGCCUUGCCUUUCCUUUGGCACA [hsa-mir-4438] | -0.0545
77 | UGUGGCAGUGGCAGAGGUCGCUACA [hsa-mir-6856] | 0.704
78 | UGUGGCCUGGGGGUUGAGGACCCCUGCUCUA [hsa-mir-645] | 1.74
79 | UGUGGCCUUUUUGCCUUUUCUAAAGGCCACAU [hsa-mir-1250] | -0.489
80 | UGUGGUCACCCACUCU [hsa-mir-4316] | 0.0225
81 | UGUGGUGGGUGGUGGCCUGCGGUGAGCAGGGCCCUCA [hsa-mir-1228] | 2.36
82 | UGUGGUUGGGGCCAUGGCGGGUGGGCAGCCCAGCCUCUGAGCCUUCCU [hsa-mir-1238] | 2.76
83 | UGUGUGCUGAGAAAAUUCACACA [hsa-mir-5580] | -0.125
84 | UGUGUGUACUCACAGCCCCUCACACA [hsa-mir-942] | -0.432
85 | UGUGUGUCGCUCCGGGUCCACG [hsa-mir-574] | 0.516
86 | UGUGUUCAGUGGAACCAAGGUAAACACA [hsa-mir-624] | 1.56
87 | UGUUAAGGCAUGUUCAGGAACA [hsa-mir-1265] | 0.28
88 | UGUUAGUGUUCAAGUCUACA [hsa-mir-4802] | -0.509
89 | UGUUCACUUUCUAUAUGAUGAAUA [hsa-mir-656] | -1.4
90 | UGUUCAGUGGGAUUUGGAGA [hsa-mir-8061] | 0.645
91 | UGUUCAUGUCUCUCUGUGCACAGGGGACGAGAGUCA [hsa-mir-4420] | -0.35
